In patent publication US20220119490A1 (Genentech, published 2022):

Tests used:
[1] = molecular target: T1, PTPRD ΔG61 ΔE106 variant extracellular domain (human, UniProt P23468 21-1265); assay: extracellular interaction screen: pentameric PTPRD variant ECD on ECD-Fc prey (FIG. 5L)
T1 construct: extracellular domain; meaning of the deletion notation not explained; also called IG1 mutant
T1 sequence (looked up): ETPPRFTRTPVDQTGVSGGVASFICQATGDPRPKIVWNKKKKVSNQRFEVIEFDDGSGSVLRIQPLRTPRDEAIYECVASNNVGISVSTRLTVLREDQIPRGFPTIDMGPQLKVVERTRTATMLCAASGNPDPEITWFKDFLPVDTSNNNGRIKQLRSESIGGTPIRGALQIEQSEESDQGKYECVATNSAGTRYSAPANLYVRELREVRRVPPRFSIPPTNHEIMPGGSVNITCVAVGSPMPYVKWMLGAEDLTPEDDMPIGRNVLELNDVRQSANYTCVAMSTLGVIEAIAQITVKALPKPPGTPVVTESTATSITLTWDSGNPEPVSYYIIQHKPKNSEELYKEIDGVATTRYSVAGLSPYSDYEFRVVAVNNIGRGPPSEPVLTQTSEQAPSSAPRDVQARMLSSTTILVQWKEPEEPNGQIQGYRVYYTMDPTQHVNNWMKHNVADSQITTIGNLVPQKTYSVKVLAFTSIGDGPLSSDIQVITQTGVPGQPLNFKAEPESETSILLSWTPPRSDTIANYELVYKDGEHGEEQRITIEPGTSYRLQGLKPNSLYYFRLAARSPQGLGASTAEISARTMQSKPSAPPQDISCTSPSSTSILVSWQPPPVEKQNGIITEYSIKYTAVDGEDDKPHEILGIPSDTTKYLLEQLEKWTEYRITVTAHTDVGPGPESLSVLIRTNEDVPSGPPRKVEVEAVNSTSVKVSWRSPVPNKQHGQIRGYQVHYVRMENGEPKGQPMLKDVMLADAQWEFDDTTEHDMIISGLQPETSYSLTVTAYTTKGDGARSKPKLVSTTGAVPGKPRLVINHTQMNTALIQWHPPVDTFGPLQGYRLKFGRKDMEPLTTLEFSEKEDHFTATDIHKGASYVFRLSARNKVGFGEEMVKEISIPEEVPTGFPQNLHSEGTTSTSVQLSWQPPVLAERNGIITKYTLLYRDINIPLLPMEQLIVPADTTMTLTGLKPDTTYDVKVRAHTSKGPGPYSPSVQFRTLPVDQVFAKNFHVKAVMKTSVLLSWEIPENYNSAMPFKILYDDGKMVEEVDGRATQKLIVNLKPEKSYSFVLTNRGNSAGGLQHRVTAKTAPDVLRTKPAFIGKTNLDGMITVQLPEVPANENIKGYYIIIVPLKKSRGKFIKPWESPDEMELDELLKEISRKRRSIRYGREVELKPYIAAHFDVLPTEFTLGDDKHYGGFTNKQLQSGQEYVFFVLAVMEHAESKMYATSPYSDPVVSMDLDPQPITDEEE

[2] = molecular target: T2, PTPRD R232C R233C variant extracellular domain (human, UniProt P23468 21-1265); assay: as above
T2 construct: extracellular domain; also called R232C/R233C double mutant; IG2 mutant
T2 sequence (looked up): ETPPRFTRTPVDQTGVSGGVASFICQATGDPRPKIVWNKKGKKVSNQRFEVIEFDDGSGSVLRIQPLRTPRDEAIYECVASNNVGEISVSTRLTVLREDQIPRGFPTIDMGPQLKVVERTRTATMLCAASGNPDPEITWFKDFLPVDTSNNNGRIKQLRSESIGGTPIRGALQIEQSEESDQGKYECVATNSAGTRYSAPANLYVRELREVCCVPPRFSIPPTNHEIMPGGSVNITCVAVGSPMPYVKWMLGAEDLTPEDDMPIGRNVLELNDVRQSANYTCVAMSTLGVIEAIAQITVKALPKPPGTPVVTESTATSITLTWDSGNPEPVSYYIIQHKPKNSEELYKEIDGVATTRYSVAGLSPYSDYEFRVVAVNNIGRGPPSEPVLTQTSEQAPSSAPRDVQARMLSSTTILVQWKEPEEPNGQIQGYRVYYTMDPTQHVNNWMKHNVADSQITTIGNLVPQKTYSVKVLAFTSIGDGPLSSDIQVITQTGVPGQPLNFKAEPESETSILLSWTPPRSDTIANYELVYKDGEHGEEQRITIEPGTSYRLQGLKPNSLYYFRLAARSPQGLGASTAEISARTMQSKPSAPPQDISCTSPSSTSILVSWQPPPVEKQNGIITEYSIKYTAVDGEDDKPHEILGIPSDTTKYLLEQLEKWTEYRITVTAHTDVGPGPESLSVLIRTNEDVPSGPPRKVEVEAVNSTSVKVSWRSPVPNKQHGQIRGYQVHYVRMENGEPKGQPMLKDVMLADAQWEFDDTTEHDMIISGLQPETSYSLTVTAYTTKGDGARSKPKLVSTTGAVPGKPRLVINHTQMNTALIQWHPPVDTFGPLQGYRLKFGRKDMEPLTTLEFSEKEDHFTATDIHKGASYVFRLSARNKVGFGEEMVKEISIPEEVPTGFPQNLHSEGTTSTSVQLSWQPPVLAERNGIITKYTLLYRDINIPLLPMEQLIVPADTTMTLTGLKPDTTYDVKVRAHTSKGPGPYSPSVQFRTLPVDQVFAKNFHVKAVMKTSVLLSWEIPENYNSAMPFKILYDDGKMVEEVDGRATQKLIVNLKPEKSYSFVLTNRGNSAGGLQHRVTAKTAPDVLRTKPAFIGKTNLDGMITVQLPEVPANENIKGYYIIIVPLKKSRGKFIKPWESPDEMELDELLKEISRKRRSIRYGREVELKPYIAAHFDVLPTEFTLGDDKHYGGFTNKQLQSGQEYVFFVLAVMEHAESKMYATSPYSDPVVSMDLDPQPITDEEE

binding result [1]: no binding
binding result [2]: no binding
B1: LRRC4B extracellular domain (receptor, human, UniProt Q9NT99 36-576, looked up)
chain: AGGGGVAVTSAAGGGSPPATSCPVACSCSNQASRVICTRRDLAEVPASIPVNTRYLNLQENGIQVIRTDTFKHLRHLEILQLSKNLVRKIEVGAFNGLPSLNTLELFDNRLTTVPTQAFEYLSKLRELWLRNNPIESIPSYAFNRVPSLRRLDLGELKRLEYISEAAFEGLVNLRYLNLGMCNLKDIPNLTALVRLEELELSGNRLDLIRPGSFQGLTSLRKLWLMHAQVATIERNAFDDLKSLEELNLSHNNLMSLPHDLFTPLHRLERVHLNHNPWHCNCDVLWLSWWLKETVPSNTTCCARCHAPAGLKGRYIGELDQSHFTCYAPVIVEPPTDLNVTEGMAAELKCRTGTSMTSVNWLTPNGTLMTHGSYRVRISVLHDGTLNFTNVTVQDTGQYTCMVTNSAGNTTASATLNVSAVDPVAAGGTGSGGGGPGGSGGVGGGSGGYTYFTTVTVETLETQPGEEALQPRGTEKEPPGPTTDGVWGGGRPGDAAGPASSSTTAPAPRSSRPTEKAFTVPITDVTENALKDLDDVMKTTK
notes: extracellular domain; ECD-Fc prey; also called NGL-3; netrin-G ligand-3
